Measurements reported in the supplement of paper PMC9112550, “Optimization of the antimicrobial peptide Bac7 by deep mutational scanning” (BMC Biology, 2022).
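Further: peptides expressed intracellularly from a pBAD plasmid library in pooled LB shake-flask culture, induced with 0.3% L-arabinose, DNA abundance read by NGS, three biological replicates, DESeq2 with apeglm shrinkage.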

These sequences were tested on Escherichia coli TOP10 (assay: shrunken log2 fold change of peptide-encoding DNA abundance (4.5 h post-induction vs induction); higher = less antimicrobial activity (less host growth inhibition)). Details: time post-induction: 4.5 h; library: site-saturation at positions 5, 18, 19, 20.
With RRIRSRPPRLPRPRPRPNHLPRP the “shrunken log2 fold change” value was -0.814. For RRIRSRPPRLPRPRPRPNIYPRP, the “shrunken log2 fold change” value was -0.519. For RRIRSRPPRLPRPRPRPNKCPRP, the “shrunken log2 fold change” value was -0.42. In the case of RRIRSRPPRLPRPRPRPNKNPRP, the “shrunken log2 fold change” value is reported as -0.384. RRIRSRPPRLPRPRPRPNKPPRP was tested, and the “shrunken log2 fold change” value was -0.23. With RRIRSRPPRLPRPRPRPNKTPRP the “shrunken log2 fold change” value was -0.286. In the case of RRIRSRPPRLPRPRPRPNMAPRP, the “shrunken log2 fold change” value is reported as -0.0738. With RRIRSRPPRLPRPRPRPNMQPRP the “shrunken log2 fold change” value was -0.0719. In the case of RRIRSRPPRLPRPRPRPNMSPRP, the “shrunken log2 fold change” value is reported as -0.315. RRIRSRPPRLPRPRPRPNNFPRP was tested, and the “shrunken log2 fold change” value was -0.667. In the case of RRIRSRPPRLPRPRPRPNNGPRP, the “shrunken log2 fold change” value is reported as -0.035. In the case of RRIRSRPPRLPRPRPRPNNMPRP, the “shrunken log2 fold change” value is reported as -0.534. In the case of RRIRSRPPRLPRPRPRPNNWPRP, the “shrunken log2 fold change” value is reported as -0.0732. In the case of RRIRSRPPRLPRPRPRPNPEPRP, the “shrunken log2 fold change” value is reported as 0.0679. With RRIRSRPPRLPRPRPRPNPGPRP the “shrunken log2 fold change” value was -0.17. In the case of RRIRSRPPRLPRPRPRPNTSPRP, the “shrunken log2 fold change” value is reported as -0.242. In the case of RRIRSRPPRLPRPRPRPNVHPRP, the “shrunken log2 fold change” value is reported as -0.312. With RRIRSRPPRLPRPRPRPNVNPRP the “shrunken log2 fold change” value was 0.259. For RRIRSRPPRLPRPRPRPNWWPRP, the “shrunken log2 fold change” value was 0.022. In the case of RRIRSRPPRLPRPRPRPNYMPRP, the “shrunken log2 fold change” value is reported as -0.756. With RRIRSRPPRLPRPRPRPNYVPRP the “shrunken log2 fold change” value was -0.906. RRIRSRPPRLPRPRPRPPDDPRP was tested, and the “shrunken log2 fold change” value was 0.488. In the case of RRIRSRPPRLPRPRPRPPDMPRP, the “shrunken log2 fold change” value is reported as -0.188. RRIRSRPPRLPRPRPRPPEQPRP was tested, and the “shrunken log2 fold change” value was 0.306. For RRIRSRPPRLPRPRPRPPESPRP, the “shrunken log2 fold change” value was 0.877. In the case of RRIRSRPPRLPRPRPRPPETPRP, the “shrunken log2 fold change” value is reported as 0.103. With RRIRSRPPRLPRPRPRPPFGPRP the “shrunken log2 fold change” value was 0.398. RRIRSRPPRLPRPRPRPPFRPRP was tested, and the “shrunken log2 fold change” value was 0.193. For RRIRSRPPRLPRPRPRPPGWPRP, the “shrunken log2 fold change” value was 0.193. With RRIRSRPPRLPRPRPRPPHGPRP the “shrunken log2 fold change” value was 0.1. In the case of RRIRSRPPRLPRPRPRPPITPRP, the “shrunken log2 fold change” value is reported as -0.177. For RRIRSRPPRLPRPRPRPPKKPRP, the “shrunken log2 fold change” value was 0.282. In the case of RRIRSRPPRLPRPRPRPPNAPRP, the “shrunken log2 fold change” value is reported as 0.0817. With RRIRSRPPRLPRPRPRPPPEPRP the “shrunken log2 fold change” value was 0.852. RRIRSRPPRLPRPRPRPPQGPRP was tested, and the “shrunken log2 fold change” value was 0.39. In the case of RRIRSRPPRLPRPRPRPPRCPRP, the “shrunken log2 fold change” value is reported as 0.218. With RRIRSRPPRLPRPRPRPPSEPRP the “shrunken log2 fold change” value was 0.0467. With RRIRSRPPRLPRPRPRPPTEPRP the “shrunken log2 fold change” value was 0.194. In the case of RRIRSRPPRLPRPRPRPPTLPRP, the “shrunken log2 fold change” value is reported as 0.0631. RRIRSRPPRLPRPRPRPPVFPRP was tested, and the “shrunken log2 fold change” value was 0.368. For RRIRSRPPRLPRPRPRPPVIPRP, the “shrunken log2 fold change” value was -0.0672. RRIRSRPPRLPRPRPRPPWYPRP was tested, and the “shrunken log2 fold change” value was -0.321. RRIRSRPPRLPRPRPRPPYAPRP was tested, and the “shrunken log2 fold change” value was 0.0164. With RRIRSRPPRLPRPRPRPPYSPRP the “shrunken log2 fold change” value was -0.379. RRIRSRPPRLPRPRPRPQCAPRP was tested, and the “shrunken log2 fold change” value was 0.233. RRIRSRPPRLPRPRPRPQCGPRP was tested, and the “shrunken log2 fold change” value was -0.129. With RRIRSRPPRLPRPRPRPQCIPRP the “shrunken log2 fold change” value was -1.27. In the case of RRIRSRPPRLPRPRPRPQCKPRP, the “shrunken log2 fold change” value is reported as 0.0936. RRIRSRPPRLPRPRPRPQCMPRP was tested, and the “shrunken log2 fold change” value was -0.584. With RRIRSRPPRLPRPRPRPQDGPRP the “shrunken log2 fold change” value was -0.0336. RRIRSRPPRLPRPRPRPQEMPRP was tested, and the “shrunken log2 fold change” value was 0.111. For RRIRSRPPRLPRPRPRPQGCPRP, the “shrunken log2 fold change” value was -0.0814. In the case of RRIRSRPPRLPRPRPRPQGTPRP, the “shrunken log2 fold change” value is reported as 0.0846. For RRIRSRPPRLPRPRPRPQHGPRP, the “shrunken log2 fold change” value was -0.397. RRIRSRPPRLPRPRPRPQHIPRP was tested, and the “shrunken log2 fold change” value was -1.21. With RRIRSRPPRLPRPRPRPQHYPRP the “shrunken log2 fold change” value was -0.804. In the case of RRIRSRPPRLPRPRPRPQIHPRP, the “shrunken log2 fold change” value is reported as -0.341. With RRIRSRPPRLPRPRPRPQLMPRP the “shrunken log2 fold change” value was -0.1. RRIRSRPPRLPRPRPRPQPRPRP was tested, and the “shrunken log2 fold change” value was 0.285. For RRIRSRPPRLPRPRPRPQRDPRP, the “shrunken log2 fold change” value was -0.117. In the case of RRIRSRPPRLPRPRPRPQRHPRP, the “shrunken log2 fold change” value is reported as 0.141. RRIRSRPPRLPRPRPRPQTCPRP was tested, and the “shrunken log2 fold change” value was -0.0978. RRIRSRPPRLPRPRPRPQWHPRP was tested, and the “shrunken log2 fold change” value was -0.26. With RRIRSRPPRLPRPRPRPQWPPRP the “shrunken log2 fold change” value was 0.121. In the case of RRIRSRPPRLPRPRPRPQWRPRP, the “shrunken log2 fold change” value is reported as 0.11. With RRIRSRPPRLPRPRPRPQYVPRP the “shrunken log2 fold change” value was -0.22. RRIRSRPPRLPRPRPRPRATPRP was tested, and the “shrunken log2 fold change” value was 0.301. RRIRSRPPRLPRPRPRPRAYPRP was tested, and the “shrunken log2 fold change” value was 0.031. With RRIRSRPPRLPRPRPRPRDFPRP the “shrunken log2 fold change” value was 0.528. RRIRSRPPRLPRPRPRPRDIPRP was tested, and the “shrunken log2 fold change” value was -0.248. For RRIRSRPPRLPRPRPRPRFEPRP, the “shrunken log2 fold change” value was 0.402. For RRIRSRPPRLPRPRPRPRGFPRP, the “shrunken log2 fold change” value was 0.82. With RRIRSRPPRLPRPRPRPRHTPRP the “shrunken log2 fold change” value was 0.0335. With RRIRSRPPRLPRPRPRPRIEPRP the “shrunken log2 fold change” value was 0.753. For RRIRSRPPRLPRPRPRPRIHPRP, the “shrunken log2 fold change” value was -0.323. With RRIRSRPPRLPRPRPRPRKMPRP the “shrunken log2 fold change” value was 0.207. For RRIRSRPPRLPRPRPRPRLKPRP, the “shrunken log2 fold change” value was -0.0978. With RRIRSRPPRLPRPRPRPRMGPRP the “shrunken log2 fold change” value was 0.234. With RRIRSRPPRLPRPRPRPRPEPRP the “shrunken log2 fold change” value was 0.507. For RRIRSRPPRLPRPRPRPRQDPRP, the “shrunken log2 fold change” value was 0.127. RRIRSRPPRLPRPRPRPRRHPRP was tested, and the “shrunken log2 fold change” value was 0.323. RRIRSRPPRLPRPRPRPRSIPRP was tested, and the “shrunken log2 fold change” value was -0.0602. With RRIRSRPPRLPRPRPRPRVAPRP the “shrunken log2 fold change” value was 0.179. With RRIRSRPPRLPRPRPRPRVIPRP the “shrunken log2 fold change” value was 0.017. RRIRSRPPRLPRPRPRPRVMPRP was tested, and the “shrunken log2 fold change” value was -0.171. With RRIRSRPPRLPRPRPRPRYVPRP the “shrunken log2 fold change” value was -0.597. With RRIRSRPPRLPRPRPRPSADPRP the “shrunken log2 fold change” value was 0.0633. For RRIRSRPPRLPRPRPRPSAFPRP, the “shrunken log2 fold change” value was -0.0159. In the case of RRIRSRPPRLPRPRPRPSCDPRP, the “shrunken log2 fold change” value is reported as -0.444. In the case of RRIRSRPPRLPRPRPRPSCLPRP, the “shrunken log2 fold change” value is reported as -0.585. For RRIRSRPPRLPRPRPRPSCWPRP, the “shrunken log2 fold change” value was 0.306. In the case of RRIRSRPPRLPRPRPRPSDIPRP, the “shrunken log2 fold change” value is reported as -0.516. RRIRSRPPRLPRPRPRPSGKPRP was tested, and the “shrunken log2 fold change” value was -0.202. In the case of RRIRSRPPRLPRPRPRPSHEPRP, the “shrunken log2 fold change” value is reported as 0.0867. With RRIRSRPPRLPRPRPRPSIFPRP the “shrunken log2 fold change” value was -0.511. RRIRSRPPRLPRPRPRPSIVPRP was tested, and the “shrunken log2 fold change” value was -0.525. For RRIRSRPPRLPRPRPRPSKEPRP, the “shrunken log2 fold change” value was -0.0581. RRIRSRPPRLPRPRPRPSKHPRP was tested, and the “shrunken log2 fold change” value was -0.461. RRIRSRPPRLPRPRPRPSKPPRP was tested, and the “shrunken log2 fold change” value was -0.432. RRIRSRPPRLPRPRPRPSLIPRP was tested, and the “shrunken log2 fold change” value was -0.0623. With RRIRSRPPRLPRPRPRPSNFPRP the “shrunken log2 fold change” value was -0.379. For RRIRSRPPRLPRPRPRPSRPPRP, the “shrunken log2 fold change” value was 1.28. In the case of RRIRSRPPRLPRPRPRPSSPPRP, the “shrunken log2 fold change” value is reported as -0.561. With RRIRSRPPRLPRPRPRPSSQPRP the “shrunken log2 fold change” value was 0.0487. With RRIRSRPPRLPRPRPRPSSWPRP the “shrunken log2 fold change” value was 0.206. For RRIRSRPPRLPRPRPRPSTIPRP, the “shrunken log2 fold change” value was -0.482. RRIRSRPPRLPRPRPRPSTWPRP was tested, and the “shrunken log2 fold change” value was -0.301. In the case of RRIRSRPPRLPRPRPRPSWNPRP, the “shrunken log2 fold change” value is reported as -0.342. In the case of RRIRSRPPRLPRPRPRPSYCPRP, the “shrunken log2 fold change” value is reported as -1.07.
